The source of these data is patent US20170183390A1 (published 2017).

In assay [1] the target is T1, soluble αVβ3 headpiece, disulfide-linked (αV headpiece residues 1-594 with M400C); β3 headpiece residues 1-472 … (UniProt P06756 31-624; P05106 27-498, Interchain disulfide between αV Cys-400 and β3 Cys-267.).
T1 alpha: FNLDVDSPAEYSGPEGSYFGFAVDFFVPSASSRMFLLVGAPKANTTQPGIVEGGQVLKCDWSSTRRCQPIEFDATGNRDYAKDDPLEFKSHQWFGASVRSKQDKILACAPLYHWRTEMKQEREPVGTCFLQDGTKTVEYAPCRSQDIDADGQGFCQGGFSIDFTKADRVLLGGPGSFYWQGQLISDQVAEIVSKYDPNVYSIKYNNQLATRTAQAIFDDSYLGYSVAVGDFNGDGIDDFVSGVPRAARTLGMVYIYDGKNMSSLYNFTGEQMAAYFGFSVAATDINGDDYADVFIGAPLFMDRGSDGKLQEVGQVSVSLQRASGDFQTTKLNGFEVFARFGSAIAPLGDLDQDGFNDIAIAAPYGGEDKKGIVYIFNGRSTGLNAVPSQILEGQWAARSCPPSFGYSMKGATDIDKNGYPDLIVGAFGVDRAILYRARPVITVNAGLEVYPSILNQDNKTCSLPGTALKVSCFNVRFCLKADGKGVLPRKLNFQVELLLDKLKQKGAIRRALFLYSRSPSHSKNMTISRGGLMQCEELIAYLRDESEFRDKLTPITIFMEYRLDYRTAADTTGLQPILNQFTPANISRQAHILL
T1 beta: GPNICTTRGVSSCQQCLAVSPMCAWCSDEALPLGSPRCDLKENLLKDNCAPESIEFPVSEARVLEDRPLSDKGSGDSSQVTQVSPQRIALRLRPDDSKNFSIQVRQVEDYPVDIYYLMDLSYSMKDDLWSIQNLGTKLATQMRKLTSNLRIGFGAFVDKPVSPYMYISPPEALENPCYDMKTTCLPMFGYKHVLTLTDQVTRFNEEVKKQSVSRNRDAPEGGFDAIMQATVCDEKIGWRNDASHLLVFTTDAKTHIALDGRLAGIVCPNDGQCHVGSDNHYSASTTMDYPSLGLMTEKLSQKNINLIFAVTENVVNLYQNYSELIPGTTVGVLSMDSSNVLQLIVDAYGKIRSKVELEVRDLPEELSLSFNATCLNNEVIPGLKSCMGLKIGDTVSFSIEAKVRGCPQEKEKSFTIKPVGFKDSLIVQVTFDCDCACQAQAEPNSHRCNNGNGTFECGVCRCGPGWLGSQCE
The experiment in a line: fluorescence anisotropy competition. A general note: Fluorescence polarisation rises when a labelled molecule tumbles more slowly, as on binding a larger partner.

Assay [2] addresses T2, soluble αVβ6 headpiece, disulfide-linked (αV headpiece residues 1-594 with M400C); β6 headpiece residues 1-474 … (human, UniProt P06756 31-624; P18564 18-491, Interchain disulfide between αV Cys-400 and β6 Cys-270.).
T2 construct: The 3C site, ACID/BASE coiled-coils, Strep-II tag and His tags were cut off with 3C protease; The two chains are linked by the introduced disulfide bond; also called modified integrin αVβ6 headpiece dimer; full headpiece
The experiment in a line: fluorescence anisotropy, competition with FITC-GRGDLGRL on the αVβ6 headpiece. As to the method: (§1) Ligands bind to the integrin headpiece, which contains the α-subunit β-propeller domain and thigh domain, and the β-subunit βI, hybrid, PSI, and EGF1 domain. […] (SEQ ID NO: 68), peptide affinity for the αVβ₆ and αVβ₃ headpiece was measured with fluorescence anisotropy.
(§2) Fluorescence anisotropy. […] Binding affinities were calculated as described in Ref. 23.

Assay [3] deals with T2, soluble αVβ6 headpiece, …. In words: fluorescence anisotropy, saturation binding, Mn2+/Ca2+. The protocol:
(§3) (SEQ ID NO: 68), was synthesized. […] By competition binding assay, the affinities of different ligands were measured.
as §2

In assay [4] the target is T2, soluble αVβ6 headpiece, …. In words: fluorescence anisotropy, saturation binding, 1 mM Mg2+/Ca2+. The protocol: as §3, §2
For assay [5], the target named is T3, soluble αVβ6 headpiece, disulfide-linked (αV headpiece residues 1-594 with M400C); β6 headpiece residues 1-474 … (UniProt P06756 31-624; P18564 18-491, Interchain disulfide between αV Cys-400 and β6 Cys-270.).
T3 alpha: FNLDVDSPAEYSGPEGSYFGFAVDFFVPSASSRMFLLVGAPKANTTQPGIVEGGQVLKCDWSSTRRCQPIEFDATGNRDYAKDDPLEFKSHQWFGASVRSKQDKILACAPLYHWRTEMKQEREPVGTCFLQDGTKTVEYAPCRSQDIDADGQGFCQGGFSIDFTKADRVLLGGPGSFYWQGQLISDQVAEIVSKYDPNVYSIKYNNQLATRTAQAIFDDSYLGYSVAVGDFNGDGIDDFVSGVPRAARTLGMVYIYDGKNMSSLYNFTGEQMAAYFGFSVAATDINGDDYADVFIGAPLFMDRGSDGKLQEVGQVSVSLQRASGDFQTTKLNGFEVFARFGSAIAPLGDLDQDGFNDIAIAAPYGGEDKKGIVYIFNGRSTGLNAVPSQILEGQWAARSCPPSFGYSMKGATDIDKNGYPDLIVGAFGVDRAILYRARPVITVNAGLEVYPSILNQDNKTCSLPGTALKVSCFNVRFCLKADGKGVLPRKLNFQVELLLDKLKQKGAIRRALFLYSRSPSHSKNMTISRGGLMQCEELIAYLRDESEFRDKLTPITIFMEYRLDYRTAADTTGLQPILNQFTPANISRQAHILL
T3 beta: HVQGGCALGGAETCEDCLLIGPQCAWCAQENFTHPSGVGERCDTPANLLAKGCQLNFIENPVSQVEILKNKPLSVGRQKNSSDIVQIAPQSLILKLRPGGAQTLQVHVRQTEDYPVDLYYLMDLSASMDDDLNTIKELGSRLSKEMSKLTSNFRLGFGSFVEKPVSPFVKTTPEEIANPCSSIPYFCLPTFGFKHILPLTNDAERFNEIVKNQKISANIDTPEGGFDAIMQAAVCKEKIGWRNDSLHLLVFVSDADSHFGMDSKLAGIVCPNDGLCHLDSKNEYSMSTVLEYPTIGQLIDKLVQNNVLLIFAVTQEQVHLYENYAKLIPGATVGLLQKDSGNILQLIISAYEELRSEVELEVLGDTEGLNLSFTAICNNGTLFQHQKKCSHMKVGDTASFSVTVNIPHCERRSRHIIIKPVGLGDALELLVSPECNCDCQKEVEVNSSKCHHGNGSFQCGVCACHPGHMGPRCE
The experiment in a line: fluorescence anisotropy; pH 5.0.

Assay [6] concerns the target T3, soluble αVβ6 headpiece, …. The experiment in a line: fluorescence anisotropy; pH 6.0.
The target of assay [7] is T3, soluble αVβ6 headpiece, …. The experiment in a line: fluorescence anisotropy; pH 7.0.
Assay [8] has as its target T3, soluble αVβ6 headpiece, …. The experiment in a line: fluorescence anisotropy; pH 8.0.
The target of assay [9] is T3, soluble αVβ6 headpiece, …. In words: fluorescence anisotropy; pH 9.0.
The target of assay [10] is T4, soluble αVβ3 headpiece, disulfide-linked (αV headpiece residues 1-594 with M400C); β3 headpiece residues 1-472 … (human, UniProt P06756 31-624; P05106 27-498, Interchain disulfide between αV Cys-400 and β3 Cys-267.).
T4 construct: tags and coiled-coils cut off with 3C protease
The experiment in a line: fluorescence anisotropy, competition with FITC-GRGDLGRL on the αVβ3 headpiece. As to the method:
as §1, §2

For assay [11], the target named is T3, soluble αVβ6 headpiece, …. The experiment in a line: fluorescence anisotropy competition.
In assay [12] the target is T2, soluble αVβ6 headpiece, …. In words: crystal structure, peptide soaked into αVβ6 headpiece crystals. The protocol:
αVβ₆ headpiece crystallization, data collection and structure determination. αVβ₆ crystals in hanging drops were formed with 3 mg/ml αVβ₆ headpiece in 20 mM Tris-HCl pH 8.0, 150 mM NaCl, 1 mM CaCl₂ and 1 mM MgCl₂ buffer (1 μl) and 1 μl reservoir solution of 20% PEG 4000, 0.1 M sodium cacodylate pH 6.0, 0.2 M ammonium sulfate. Identical vol:vol mixture of the protein and crystallization buffers yields a pH of 6.5. […] Immediately prior to flash freezing in liquid N₂, crystals were dipped in reservoir solution containing 25% glycerol with or without peptide, MgCl₂, and CaCl₂ each at 0.25 mM.

Ends that are not written are not given here. * marks the point of attachment. FITC = O=C1OC2(c3ccc(O)cc3Oc3cc(O)ccc32)c2ccc(NC(=S)*)cc21

With TSGDQKTIK (also called pro-TGF-β2 peptide) [homologous peptide from pro-TGF-β2, which has SGDQ in place of RGDL of pro-TGF-β1], binding in [1] was characterised by a dissociation constant (Kd) of 4.8 µM. For the same molecule, in [2], binding was put at a Kd of 8.5 µM; the “fold lower affinity than the pro-TGF-β1 and pro-TGF-β3 nonapeptides” value came to 1000 fold.

{FITC}-GRGDLGRL (also called the probe) [FITC-GRGDLGRL (FITC-pro-TGF-β3 peptide, fluorescence probe)]: the Kd in assay [3] was 0.01 µM; in assay [4] it was 0.1 µM; in assay [5], 3.81 µM; in [6], 2 µM; in assay [7] it was 0.212 µM; in assay [8], 0.0846 µM. This molecule also yielded a Kd in assay [9] of 0.0274 µM.

B1: nonapeptide containing RGD from pro-TGF-β3 (GRGDLGRLK) (peptide)
peptide: GRGDLGRLK
notes: also called pro-TGF-β3 peptide; TGF-β3 nonapeptide
In the case of B1, the Kd in assay [1] was 2.3 µM; in assay [2], 0.0085 µM. The “fold lower affinity than for αVβ6” value in assay [10] came to 1000 fold.

HGRGDLG displayed an equilibrium dissociation constant (Kd) in [11] of 0.691 µM.

RRGDLATIH (also called pro-TGF-β1 peptide) [nonapeptide containing RGD from pro-TGF-β1] came in with a dissociation constant Kd in [2] of 0.0103 µM.

In turn, HGRGDLGRL yielded a dissociation constant (Kd) in assay [11] of 0.0284 µM.

HGRGDLGR: in [11], the Kd turned out to be 0.296 µM.

B2: pro-TGF-β3 undecapeptide Ac-HGRGDLGRLKK-NH2 (peptide)
peptide: Ac-HGRGDLGRLKK-NH2
notes: also called Pro-TGF-β3 peptide; TGF-β3 peptide
Regarding B2, the binding result in assay [12] is on record as “binds”. The molecule also gave a Kd in assay [11] of 0.0073 µM.

The molecule HGRGDL came in with a Kd in [11] of 0.966 µM.

Regarding HGRGD, in assay [11], the Kd came to 8.9 µM.

For the molecule HGRGDLGRLK, binding in assay [11] was characterised by a dissociation constant (Kd) of 0.0203 µM.

A word on the Kd: it is the constant that tells how readily two partners part at equilibrium. High values mean lower affinity, low ones higher affinity.
